This data set has as its target Ku70-Ku80 heterodimer (Ku);PAXX WT (PAXX1-204, C9orf142) (human?;human, UniProt P12956;P13010;Q9BUH6 1-609;1-732;1-204, |). The experiment in a line: EMSA. On the technique in general: A gel shift assay detects complexes by their altered migration in electrophoresis.

We go through one molecule from publication PMC4338599.

Chain of Ku70-Ku80 heterodimer (Ku);PAXX WT (PAXX1-204, C9orf142) (P12956 whole entry, chain 1 of 3): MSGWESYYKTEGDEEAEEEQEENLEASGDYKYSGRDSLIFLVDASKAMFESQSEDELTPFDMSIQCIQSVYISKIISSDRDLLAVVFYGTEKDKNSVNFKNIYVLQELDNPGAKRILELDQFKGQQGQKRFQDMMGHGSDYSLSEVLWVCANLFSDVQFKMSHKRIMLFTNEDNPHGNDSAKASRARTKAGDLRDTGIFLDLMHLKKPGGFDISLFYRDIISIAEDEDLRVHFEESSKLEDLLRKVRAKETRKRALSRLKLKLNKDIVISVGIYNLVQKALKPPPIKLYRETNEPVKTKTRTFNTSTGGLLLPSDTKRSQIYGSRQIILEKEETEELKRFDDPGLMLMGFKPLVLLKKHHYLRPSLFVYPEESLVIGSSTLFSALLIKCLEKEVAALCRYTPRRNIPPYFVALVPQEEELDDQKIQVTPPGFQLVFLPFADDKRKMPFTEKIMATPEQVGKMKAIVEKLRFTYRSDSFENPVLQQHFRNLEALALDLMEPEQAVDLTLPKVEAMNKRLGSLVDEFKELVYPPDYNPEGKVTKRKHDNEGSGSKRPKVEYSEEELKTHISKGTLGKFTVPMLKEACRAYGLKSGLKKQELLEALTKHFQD
Chain of Ku70-Ku80 heterodimer (Ku);PAXX WT (PAXX1-204, C9orf142) (P13010 whole entry, chain 2 of 3): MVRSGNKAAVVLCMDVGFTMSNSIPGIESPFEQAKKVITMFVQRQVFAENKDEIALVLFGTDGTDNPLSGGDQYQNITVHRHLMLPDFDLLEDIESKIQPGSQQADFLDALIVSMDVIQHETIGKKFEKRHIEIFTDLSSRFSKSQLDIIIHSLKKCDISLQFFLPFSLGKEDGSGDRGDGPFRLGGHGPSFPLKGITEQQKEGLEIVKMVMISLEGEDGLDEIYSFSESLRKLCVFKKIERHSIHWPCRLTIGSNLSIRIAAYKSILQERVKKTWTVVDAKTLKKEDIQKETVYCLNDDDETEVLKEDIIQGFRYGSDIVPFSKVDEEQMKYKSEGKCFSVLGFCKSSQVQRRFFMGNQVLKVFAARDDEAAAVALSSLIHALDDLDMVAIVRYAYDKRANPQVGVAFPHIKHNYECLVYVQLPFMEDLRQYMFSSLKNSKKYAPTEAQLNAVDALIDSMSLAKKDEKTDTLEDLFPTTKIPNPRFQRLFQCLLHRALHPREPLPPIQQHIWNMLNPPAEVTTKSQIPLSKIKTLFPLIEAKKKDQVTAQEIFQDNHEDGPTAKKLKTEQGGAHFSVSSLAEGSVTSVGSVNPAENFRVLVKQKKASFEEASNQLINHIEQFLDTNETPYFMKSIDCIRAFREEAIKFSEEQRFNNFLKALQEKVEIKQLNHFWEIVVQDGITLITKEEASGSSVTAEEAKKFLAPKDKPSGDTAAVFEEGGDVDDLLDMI
Chain of Ku70-Ku80 heterodimer (Ku);PAXX WT (PAXX1-204, C9orf142) (Q9BUH6 whole entry, chain 3 of 3): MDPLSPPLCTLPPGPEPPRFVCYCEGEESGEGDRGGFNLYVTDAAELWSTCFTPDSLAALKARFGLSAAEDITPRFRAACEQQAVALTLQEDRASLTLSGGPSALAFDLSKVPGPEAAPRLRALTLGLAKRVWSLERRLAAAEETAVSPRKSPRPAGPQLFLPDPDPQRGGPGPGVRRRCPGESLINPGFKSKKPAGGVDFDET

B1: 50-bp 6-FAM dsDNA (dsDNA)
DNA 1: TAAATGCCAATGCTGCTGATACGTACTCGGACTGATTCGGAACTGTAACG
DNA 2: CGTTACAGTTCCGAATCAGTCCGAGTACGTATCAGCAGCATTGGCATTTA
Regarding B1, the binding result is “binds”.
